Assay results taken from patent publication US20180194830A1 (COMMISSARIAT A L ENERGIE ATOMIQUE ET AUX ENERGIES …, published 2018).

Target: T1, ILT4-Fc (recombinant ILT4 receptor fused to the Fc part of a human IgG, R&D Biosystems) (human, UniProt Q8N423 22-458)
T1 construct: Bought reagent (R&D); also called ILT4/LILRB2/CD85d; not shown: Fc part of a human IgG
Experiment: dimer covalently coated on Bio-Plex beads, ILT4-Fc at 2 µg/ml, PE anti-human IgG, flow cytometry
Procedure: To test the binding to HLA-G receptors ILT2, ILT4, and KIR2DL4, 12 μg of dimers obtained according to example 2 were covalently coated on Bio-Plex-COOH polystyrene beads (Bio-Rad) according to the manufacturer's recommendations. Beads were then resuspended at a concentration of 2000 beads per 50 μl in 1× Luminex assay buffer (Interchim). Recombinant receptors fused to the Fc part of a human IgG (ILT2-Fc, ILT4-Fc, R&D Biosystems) were then added at 2 μg/ml. Beads and receptors were then incubated for 90 minutes in the dark on a shaker before wash twice with 200 μl of 1×PBS, 0.05% Tween. Beads were then resuspended in 50 μl of PBS Luminex assay Buffer containing 2 μl g/ml of Phycoerythrin-conjugated Goat anti Human IgG antibody (Sigma) for 30 minutes in the dark on a rotating shaker. Beads were then washed twice with 200 μl of 1×PBS, 0.05% Tween, and resuspended in 300 μl of 1×PBS.
Fluorescence, indicative of peptide recognition by the receptors was evaluated by flow cytometry performed on an Epics XL Cytometer (Beckman Coulter) using EXPO32 software (Beckman Coulter).

T1 sequence (Q8N423 22-458 limits assumed): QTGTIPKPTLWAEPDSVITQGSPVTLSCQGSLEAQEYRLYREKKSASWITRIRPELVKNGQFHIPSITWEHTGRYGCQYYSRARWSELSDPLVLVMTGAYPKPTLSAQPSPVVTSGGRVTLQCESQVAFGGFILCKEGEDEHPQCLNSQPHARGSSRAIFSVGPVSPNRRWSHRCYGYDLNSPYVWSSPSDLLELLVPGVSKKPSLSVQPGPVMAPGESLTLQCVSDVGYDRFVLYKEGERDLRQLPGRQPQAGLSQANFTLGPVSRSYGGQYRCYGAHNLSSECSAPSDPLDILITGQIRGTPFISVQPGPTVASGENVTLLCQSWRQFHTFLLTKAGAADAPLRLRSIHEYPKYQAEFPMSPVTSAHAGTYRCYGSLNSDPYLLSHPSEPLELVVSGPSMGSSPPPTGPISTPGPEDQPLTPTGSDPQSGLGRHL

B1: (alpha1-alpha 3)×2 dimer of SEQ ID NO:4 (peptide)
chain: GSHSMRYFSAAVSRPGRGEPRFIAMGYVDDTQFVRFDSDSACPRMEPRAPWVEQEGPEYWEEETRNTKAHAQTDRMNLQTLRGYYNQSEADPPKTHVTHHPVFDYEATLRCWALGFYPAEIILTWQRDGEDQTQDVELVETRPAGDGTFQKWAAVVVPSGEEQRYTCHVQHEGLPEPLMLRWKQ
modifications: intrachain disulfide between cysteines 111 and 167; interchain disulfide bridge between Cysteine 42 of the two monomers
notes: Synthetic disulfide-linked homodimer; in the assay covalently coated on Bio-Plex-COOH polystyrene beads; also called (alpha 3-alpha1)×2; (alpha1-alpha 3)x2
B1: binds.
